Laboratory results reported in US20230227833.

System: Reverse transcriptase (RT)
Assay: inhibition
Details: RNA strand 3' phosphate; DNA strand 3' dideoxy; 37 C; activity fully released at 55 C

Sequence: TCGAACGGGACGGCTGGCTGTGTGTGT / CCAGCCGTCC [analogs 6+7 (RNA/DNA)]
- activity (% residual activity): 16
